T1: human CD22 (human, UniProt P20273 20-687, limits assumed)
T1 construct: also called SIGLEC-2; human CD22 protein
T1 sequence (looked up): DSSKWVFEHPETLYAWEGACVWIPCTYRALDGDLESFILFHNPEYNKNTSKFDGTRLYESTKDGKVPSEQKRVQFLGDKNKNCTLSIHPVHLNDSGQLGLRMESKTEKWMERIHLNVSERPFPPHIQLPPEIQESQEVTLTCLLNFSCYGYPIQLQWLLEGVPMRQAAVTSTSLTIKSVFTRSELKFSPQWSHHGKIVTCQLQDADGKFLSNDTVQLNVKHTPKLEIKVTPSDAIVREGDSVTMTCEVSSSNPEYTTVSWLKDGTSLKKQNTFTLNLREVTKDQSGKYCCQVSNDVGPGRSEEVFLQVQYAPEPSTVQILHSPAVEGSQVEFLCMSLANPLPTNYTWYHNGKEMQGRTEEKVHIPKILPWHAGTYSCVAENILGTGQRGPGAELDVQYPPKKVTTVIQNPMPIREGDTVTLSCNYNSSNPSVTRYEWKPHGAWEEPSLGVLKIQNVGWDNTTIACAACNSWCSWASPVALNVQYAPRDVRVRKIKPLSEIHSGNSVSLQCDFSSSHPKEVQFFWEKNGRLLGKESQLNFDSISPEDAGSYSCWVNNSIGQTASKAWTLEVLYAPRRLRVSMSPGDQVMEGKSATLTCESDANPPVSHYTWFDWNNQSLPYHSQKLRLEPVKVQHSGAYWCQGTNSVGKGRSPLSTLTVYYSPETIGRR


Molecular target: T1, human CD22
Assay: ELISA protein and cell-binding assays

| Binder | binding result |
| --- | --- |
| anti-CD22 heavy chain-only antibody Clone ID 335206 (antibody, V domains shown, Heavy chain-only antibody (UniAb), no light chain) VH: QLQLQESGPGLVKPSETLSLTCTVSGDSISSGDYYWGWIRQPPGKGLEWIGHIYYSGATYYNPSLKNRVTISVDTSKNQFSLKLSSVTAADTAVYYCTREDSSNWRSRGQGTLVTVSS | binds |
| anti-CD22 heavy chain-only antibody Clone ID 335176 (antibody, V domains shown, Heavy chain-only antibody (UniAb), no light chain) VH: QLQLQESGPGLVKPSETLSLTCTVSGDSISSGDYYWGWIRQPPGKGLEWIGHIYYSGATYYNPSLKNRVTISVDTSKNQFSLKLSSVTAADTAVYYCTRDDSSNWRSRGQGTLVTVSS | binds |
| anti-CD22 heavy chain-only antibody Clone ID 335166 (antibody, V domains shown, Heavy chain-only antibody (UniAb), no light chain) VH: QLQLQESGPGLVKPSETLSLTCTVSGGSISSSSYYWGWIRQPPGKGLEWIGSIYYSGSTYYNPSLKNRVTISVDTSRNQFSLNLSSVTAADTAVYYCTRDDSSNWRSRGQGTLVTVSS | binds |
| anti-CD22 heavy chain-only antibody Clone ID 335185 (antibody, V domains shown, Heavy chain-only antibody (UniAb), no light chain) VH: QLQLQESGPGLVKPSETLSLTCTVSGDSISSGDYYWGWIRQPPGKGLEWIGHIYYSGATYYNPSLKNRVTISVDTSRNQFSLNLSSVTAADTAVYYCTREDSSNWRSRGQGTLVTVSS | binds |
| anti-CD22 heavy chain-only antibody Clone ID 335170 (antibody, V domains shown, Heavy chain-only antibody (UniAb), no light chain) VH: QLQLQESGPGLVKPSETLSLTCTVSGDSISSGDYYWGWIRQPPGKGLEWIGHIYYSGATYYNPSLKNRVTISVDTSRNQFSLKLSSVTAADTAVYYCTRDDSSNWRSRGQGTLVTVSS | binds |
| anti-CD22 heavy chain-only antibody Clone ID 335195 (antibody, V domains shown, Heavy chain-only antibody (UniAb), no light chain) VH: QLQLQESGPGLVKPSETLSLTCTVSGGSISSSSYYWGWIRQPPGKGLEWIGSIYYSGATYYNPSLKNRVTISVDTSRNQFSLNLSSVTAADTAMYYCTREDSSNWRSRGQGTLVTVSS | binds |
| anti-CD22 heavy chain-only antibody Clone ID 335208 (antibody, V domains shown, Heavy chain-only antibody (UniAb), no light chain) VH: QLQLQESGPGLVKPSETLSLTCTVSGGSISSSSYYWGWIRQPPGKGLEWIGSIYYSGATYYNPSLKNRVTISVDTSRNQFSLNLSSVTAADTAVYYCTREDSSNWRSRGQGTLVTVSS | binds |
| anti-CD22 heavy chain-only antibody Clone ID 335186 (antibody, V domains shown, Heavy chain-only antibody (UniAb), no light chain) VH: QLQLQESGPGLVKPSETLSLTCTVSGGSISSSSYYWGWIRQPPGKGLEWIGSIYYSGSTYYNPSLKSRVTISVDTSKNQFSLKLSSVTAADTAVYYCTRDDSSNWRSRGQGTLVTVSS | binds |
| anti-CD22 heavy chain-only antibody Clone ID 335182 (antibody, V domains shown, Heavy chain-only antibody (UniAb), no light chain) VH: QLQLQESGPGLVKPSETLSLTCTVSGDSISSGDYYWGWIRQPPGKGLEWIGNIYYSGATYYNPSLKNRVTISVDTSKNQFSLKLSSVTAADTAVYYCTRDDSSNWRSRGQGTLVTVSS | binds |
| anti-CD22 heavy chain-only antibody Clone ID 335154 (antibody, V domains shown, Heavy chain-only antibody (UniAb), no light chain) VH: QLQLQESGPGLVKPSETLSLTCTVSGDSISSGDYYWGWIRQPPGKGLEWIGHIYYSGVTYYNPSLKNRVTISVDTSKNQFSLKLSSVTAADTAVYYCTRDDSSNWRSRGQGTLVTVSS | binds |
| anti-CD22 heavy chain-only antibody Clone ID 335203 (antibody, V domains shown, Heavy chain-only antibody (UniAb), no light chain) VH: QLQLQESGPGLVKPSETLSLTCTVSGDSISSGDYYWGWIRQPPGKGLEWIGHIYYSGVTYYNPSLKNRVTISVDTSKNQFSLKLSSVTAADTAVYYCTREDSSNWRSRGQGTLVTVSS | binds |
| anti-CD22 heavy chain-only antibody Clone ID 335187 (antibody, V domains shown, Heavy chain-only antibody (UniAb), no light chain) VH: QLQLQESGPGLVKPSETLSLTCTVSGGSISSSSYYWGWIRQPPGKGLEWIGHIYYSGATYYNPSLKNRVTISVDTSKNQFSLKLSSVTAADTAVYYCTRDDSSNWRSRGQGTLVTVSS | binds |
| anti-CD22 heavy chain-only antibody Clone ID 335218 (antibody, V domains shown, Heavy chain-only antibody (UniAb), no light chain) VH: QLQLQESGPGLVKPSETLSLTCTVSGDSISSGDYYWGWIRQPPGKGLEWIGHIYYSGATYYNPSLKNRVTISVDTSRNQFSLKLSSVTAADTAVYYCTREDSSNWRSRGQGTLVTVSS | binds |
| anti-CD22 heavy chain-only antibody Clone ID 335161 (antibody, V domains shown, Heavy chain-only antibody (UniAb), no light chain) VH: QLQLQESGPGLVKPSETLSLTCTVSGDSISSGDYYWGWIRQPPGKGLEWIGHIYYSGATYYNPSLENRVTISVDTSKNQFSLKLSSVTAADTAVYYCTRDDSSNWRSRGQGTLVTVSS | binds |
| anti-CD22 heavy chain-only antibody Clone ID 335219 (antibody, V domains shown, Heavy chain-only antibody (UniAb), no light chain) VH: QLQLQESGPGLVKPSETLSLTCTVSGGSISSSSYYWGWIRQPPGKGLEWIGSIYYSGVTYYNPSLKNRVTISVDTSKNQFSLKLSSVTAADTAVYYCTREDSSNWRSRGQGTLVTVSS | binds |
| anti-CD22 heavy chain-only antibody Clone ID 335201 (antibody, V domains shown, Heavy chain-only antibody (UniAb), no light chain) VH: QLQLQESGPGLVKPSETLSLTCTVSGDSISSGDYYWGWIRQPPGKGLEWIGHIYYSGVTYYNPSLKNRVTISVDTSRNQFSLKLSSVTAADTAVYYCTREDSSNWRSRGQGTLVTVSS | binds |
| anti-CD22 heavy chain-only antibody Clone ID 335171 (antibody, V domains shown, Heavy chain-only antibody (UniAb), no light chain) VH: QLQLQESGPGLVKPSETLSLTCTVSGGSISSSSYYWGWIRQPPGKGLEWIGSIYYSGATYYNPSLKNRVTISVDTSRNQFSLNLSSVTAADTAVYYCTRDDSSNWRSRGQGTLVTVSS | binds |
| anti-CD22 heavy chain-only antibody Clone ID 335151 (antibody, V domains shown, Heavy chain-only antibody (UniAb), no light chain) VH: QLQLQESGPGLVKPSETLSLTCTVSGDSISSGDYYWGWIRQPPGKGLEWIGHIYYSGATYYNPSLKNRVTISVDTSRNQFSLNLSSVTAADTAVYYCTRDDSSNWRSRGQGTLVTVSS | binds |
| anti-CD22 heavy chain-only antibody Clone ID 335189 (antibody, V domains shown, Heavy chain-only antibody (UniAb), no light chain) VH: QLQLQESGPGLVKPSETLSLTCTVSGGSISSSSYYWGWIRQPPGKGLEWIGSVYYTGATYYNPSLKNRVTISVDTSKNQFSLKLSSVTAADTAVYYCTRDDSSNWRSRGQGTLVTVSS | binds |
| anti-CD22 heavy chain-only antibody Clone ID 335207 (antibody, V domains shown, Heavy chain-only antibody (UniAb), no light chain) VH: QLQLQESGPGLVKPSETLSLTCTVSGDSISSGDYYWGWIRQPPGKGLEWIGHIYYSGVTYYNPSLKSRVTISVDTSRNQFSLKLSSVTAADTAVYYCTREDSSNWRSRGQGTLVTVSS | binds |
| anti-CD22 heavy chain-only antibody Clone ID 335150 (antibody, V domains shown, Heavy chain-only antibody (UniAb), no light chain) VH: QLQLQESGPGLVKPSETLSLTCTVSGDSISSGDYYWGWIRQSPEKGLEWIGHIYYSGVTYYNPSLKNRVTISVDTSKNQFSLKLSSVTAADTAVYYCKRDDSSNWRSRGQGTLVTVSS | binds |

Second part, the binder after the results:

| binding result | Binder |
| --- | --- |
| binds | anti-CD22 heavy chain-only antibody Clone ID 335181 (antibody, V domains shown, Heavy chain-only antibody (UniAb), no light chain) VH: QLQLQESGPGLVKPSETLSLTCTVSGDSISSGGYYWGWIRQPPGKGLEWIGHIYYSGATYYNPSLKNRVTISVDTSKNQFSLKLSSVTAADTAVYYCTRDDSSNWRSRGQGTLVTVSS |
| binds | anti-CD22 heavy chain-only antibody Clone ID 324508 (antibody, V domains shown, Heavy chain-only antibody (UniAb), no light chain) VH: QLQLQESGPGLVKPSETLSLTCTVSGGSISSGDYYWGWIRQPPGKGLEWIGHIYYSGATYYNPSLENRVTISVDTSKNQFSLKLSSVTAADTAVYYCTRDDSSNWRSRGQGTLVTVSS |
| binds | anti-CD22 heavy chain-only antibody Clone ID 335173 (antibody, V domains shown, Heavy chain-only antibody (UniAb), no light chain) VH: QLQLQESGPGLVKPSETLSLTCTVSGGSITSSSYYWGWIRQPPGKGLEWIGSIYYSGSTYYNPSLKSRVTISVDTSKNQFSLKLSSVTAADTAVYYCTRDDSSNWRSRGQGTLVTVSS |
| binds | anti-CD22 heavy chain-only antibody Clone ID 335188 (antibody, V domains shown, Heavy chain-only antibody (UniAb), no light chain) VH: QLQLQESGPGLVKPSETLSLTCTVSGGSISSSSYYWGWIRQPPGKGLEWIGHIYYSGVTYYNPSLKNRVTISVDTSKNQFSLKLSSVTAADTAVYYCTRDDSSNWRSRGQGTLVTVSS |
| binds | anti-CD22 heavy chain-only antibody Clone ID 335158 (antibody, V domains shown, Heavy chain-only antibody (UniAb), no light chain) VH: QLQLQESGPGLVKPSETLSLTCTVSGGSISSGDYYWGWIRQPPGKGLEWIGHIYYSGATYYNPSLKNRVTISVDTSRNQFSLKLSSVTAADTAVYYCTRDDSSNWRSRGQGTLVTVSS |
| binds | anti-CD22 heavy chain-only antibody Clone ID 335210 (antibody, V domains shown, Heavy chain-only antibody (UniAb), no light chain) VH: QLQLQESGPGLVKPSETLSLTCTVSGGSISSGDYYWGWIRQPPGKGLEWIGHIYYSGATYYNPSLKNRVTISVDTSRNQFSLKLSSVTAADTAVYYCTREDSSNWRSRGQGTLVTVSS |
| binds | anti-CD22 heavy chain-only antibody Clone ID 335159 (antibody, V domains shown, Heavy chain-only antibody (UniAb), no light chain) VH: QLQLQESGPGLVKPSETLSLTCTVSGGSISSSSYYWGWIRQPPGKGLEWIGHIYYSGVTYYNPSLKNRVTISVDTSKNQFSLKLSSVTAADTAAYYCTRDDSSNWRSRGQGTLVTVSS |
| binds | anti-CD22 heavy chain-only antibody Clone ID 335162 (antibody, V domains shown, Heavy chain-only antibody (UniAb), no light chain) VH: QLQLQESGPGLVKPSETLSLTCTVSGGSIISSSYYWGWIRQPPGKGLEWIGSIYYSGSAYYHPSLKSRVTISIDTSKNQFSLKLSSVTAADTAVYYCARDDSSNWRSRGQGTLVTVSS |
| binds | anti-CD22 heavy chain-only antibody Clone ID 335160 (antibody, V domains shown, Heavy chain-only antibody (UniAb), no light chain) VH: QLQLQESGPGLVKPSETLSLTCTVSGDSISSGDYYWGWIRQPPGKGLEWIGSIYYSGATYYNPSLKNRVTISVDTSKNQFSLKLSSVTAADTAVYYCTRDDSSNWRSRGQGTLVTVSS |

Source: US20210047402A1 (TENEOBIO, published 2021)
